Results on 6 substances are retold here after publication PMC7666158.

Assay [1] has as its target pp-p38 (double-phosphorylated, activated p38α) (human) (UniProt Q16539). In words: competition in an in vitro kinase assay; 2 nM pp-p38, 2 µM MBP-ATF2 substrate, 3-fold dilution series of peptide from 1 mM; phospho-ATF2 dot blot; Ki = IC50/(1 + S/KM), KM 17.3 µM.
Assay [2] addresses JNK1-dc20 (JNK1 with the C-terminal 20 residues truncated) (human) (UniProt P45983). Nature of the assay: fluorescence polarisation; competitive: 50 nM CF-evJIP with JNK1 at ~60–80% complex, titrated with unlabeled competitor; 20 mM Tris pH 8.0, 100 mM NaCl, 0.05% Brij35P, 2 mM TCEP; 384-well plates.
Assay [3] addresses CF-evJIP (carboxyfluorescein-labeled reporter docking peptide). In words: fluorescence polarisation; direct titration: 50 nM CF-evJIP, JNK1 concentration increased; 20 mM Tris pH 8.0, 100 mM NaCl, 0.05% Brij35P, 2 mM TCEP; 384-well plates. For orientation: In fluorescence polarisation assays a small probe gives low polarisation when free and higher when bound to something large.

As for SPFENEF peptide (ATF2 83–102), WT, in assay [1], the inhibition constant (Ki) worked out at 33.6 µM.

As to “SPFENEF peptide (ATF2 83–102) phospho-S90”, the Ki in assay [1] was determined as 820 µM.

“ATF2(19–100) Q34R/H47R (mutant construct of the FP assay of Fig. 2b) (from UniProt P15336-1 19-100) (domain or fragment)”: in assay [2], the fold stronger binding than the wild type is 100 fold.

Regarding “JNK1-dc20 (JNK1 where the C-terminal 20 residues are truncated) (from UniProt P45983 1-364) (enzyme)”, the Kd in assay [3] is 0.47 µM.

Take “SPFENEF peptide (ATF2 83–102) S90N (from UniProt P15336-1 83-102)”: the Ki in assay [1] came to 7.5 µM.

In assay [2], “MBP-c-Jun(1–78) K35E (domain or fragment)” gave a fold decrease in binding against the wild type of 10 fold.

Usually Ki stands for a measure of affinity in units of concentration, obtained from inhibition or displacement. Usually Kd stands for the free concentration of one partner at which half of the binding sites on the other are occupied at equilibrium, for simple one-to-one binding.
